Reference: patent US20150284437A1 (Harvard, published 2015)
Non-standard residues stand in square brackets, D forms with d. No end group written: not given here. βAla = NCCC(=O)O

Molecular target: T1, N-terminally GST-tagged human β-catenin (human, UniProt P35222 1-781, limits assumed)
T1 construct: not shown: N-terminal GST tag
T1 sequence (looked up): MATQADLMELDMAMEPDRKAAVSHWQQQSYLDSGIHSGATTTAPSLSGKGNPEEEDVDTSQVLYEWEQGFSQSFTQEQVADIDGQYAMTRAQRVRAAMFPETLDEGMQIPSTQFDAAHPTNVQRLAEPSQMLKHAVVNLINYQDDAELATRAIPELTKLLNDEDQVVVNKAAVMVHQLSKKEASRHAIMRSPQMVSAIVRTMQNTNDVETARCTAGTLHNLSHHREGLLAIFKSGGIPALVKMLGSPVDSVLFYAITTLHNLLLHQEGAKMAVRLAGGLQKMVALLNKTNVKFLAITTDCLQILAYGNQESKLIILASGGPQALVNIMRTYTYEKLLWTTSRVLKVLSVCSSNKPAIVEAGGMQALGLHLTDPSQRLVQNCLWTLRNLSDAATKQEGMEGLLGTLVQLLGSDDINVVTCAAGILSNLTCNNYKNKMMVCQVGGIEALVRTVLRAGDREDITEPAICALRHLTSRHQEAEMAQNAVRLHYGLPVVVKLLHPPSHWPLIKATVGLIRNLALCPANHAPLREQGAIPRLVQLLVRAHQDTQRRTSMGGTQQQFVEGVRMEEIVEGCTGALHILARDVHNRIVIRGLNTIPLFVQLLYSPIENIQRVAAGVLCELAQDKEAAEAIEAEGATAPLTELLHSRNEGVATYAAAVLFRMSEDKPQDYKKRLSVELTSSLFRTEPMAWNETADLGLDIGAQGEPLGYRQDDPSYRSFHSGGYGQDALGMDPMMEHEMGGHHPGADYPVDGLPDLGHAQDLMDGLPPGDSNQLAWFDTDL
Assay: fluorescence polarization; FITC-labeled peptide, GST-tagged human β-catenin
Method: Peptide sequences derived from TCF4 and Axin were synthesized and fluorescently labeled (FIG. 4b) and the affinity of both binding domains to β-catenin was assessed. The sequence of TCF4 was modified in such a way that the loop (9 amino acids; not visible in the crystal structure) between the extended region and the α-helix was replaced by two β-alanines (βAla). Labeled peptides and GST-tagged human β-catenin were used in a fluorescence polarization assay enabling the determination of the stability of these peptide/β-catenin complexes (FIG. 4c). […] Therefore, the Axin derivative was considered to be the most promising candidate for the hydrocarbon stapling approach.

B1: TCF4 derived peptide, fluorescently labeled (peptide, UniProt Q9NQB0 10-53, looked up)
peptide: DELISFKDEGEQE[βAla][βAla]ERDLADVKSSLVN
modifications: also: FITC label, place not given here
notes: A synthetic fragment, not the whole protein
With B1 the Kd was 300 nM.

B2: Axin wild type sequence peptide ax-WT, fluorescently labeled (peptide)
peptide: ENPESILDEHVQRVM
modifications: also: FITC label, site not given here
notes: also called axin-WT; Axin derived peptide
B2 was tested, and the Kd was roughly 5000 nM.
